Measured values: publication PMC12566272

Molecular target: T1, FucR (Cj0480c), IclR-type regulator (Campylobacter jejuni NCTC 11168) (UniProt Q0PB33)
T1 sequence: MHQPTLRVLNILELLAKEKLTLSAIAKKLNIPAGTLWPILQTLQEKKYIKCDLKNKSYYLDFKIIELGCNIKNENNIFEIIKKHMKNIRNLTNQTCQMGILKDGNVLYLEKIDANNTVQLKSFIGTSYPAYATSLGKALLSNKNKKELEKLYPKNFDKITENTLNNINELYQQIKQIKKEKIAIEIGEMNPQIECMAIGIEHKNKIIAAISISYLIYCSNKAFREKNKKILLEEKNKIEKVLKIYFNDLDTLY
Test: EMSA
Details: 50 mM Tris-HCl, 150 mM KCl, 10 mM MgCl2, pH 7.4, room temperature, 1 h; 4-20% gradient PAGE

**Q.** For “GCTGATGCATATTGTCTTTATCCTTATTTTATTTTTATAAATTTTAGCATATTTTTTACTTTTAGTAACATAAAATCATAATTTTTATTATTTATTAATTTTAATATTTTTTTTGTAAAAATTGGCAGTTAATAAGAATAAAATACGAATTTTTACCAAGTTAACAGCTTGATTTTTTTACAAATATTTTGTTATATTTTTTGTATATAAATATATTTTTGTATATACGAAAGGAAAAAAATGGGAATTTTAAAAGGAACTTTACCGGCTTTACTTAC (double strand) [PR2 (fucose operon) promoter fragment]”, which binding is on record?
**A.** The binding was “binds”.
